This passage reports unfolding free energy and denaturant m value results from FireProtDB (doi:10.1110/ps.8.8.1623).

“And” between values parts separate entries of the source, which are not always exact repeats. Identical values can stand only once.

For this data set the following is noted: Escherichia coli (strain K12), pH 7.8, 25 °C, Urea, Potassium phosphate 100 mM, transition: 3, whole UniProt chain shown.

B1: Tryptophan synthase alpha chain wild type, P0A877 (protein)
chain: MERYESLFAQLKERKEGAFVPFVTLGDPGIEQSLKIIDTLIEAGADALELGIPFSDPLADGPTIQNATLRAFAAGVTPAQCFEMLALIRQKHPTIPIGLLMYANLVFNKGIDEFYAQCEKVGVDSVLVADVPVEESAPFRQAALRHNVAPIFICPPNADDDLLRQIASYGRGYTYLLSRAGVTGAENRAALPLNHLVAKLKEYNAAPPLQGFGISAPDQVKAAIDAGAAGAISGSAIVKIIEQHINEPEKMLAALKVFVQPMKAATRS
On to B1, for which the unfolding free energy is 6.6 kcal/mol and 4.6 kcal/mol and 4.4 kcal/mol (CD); 6 kcal/mol and 4.5 kcal/mol and 4.9 kcal/mol (Fluorescence). Further, for the setting “Fluorescence”, the denaturant m value is 2.2 kcal/mol/M and 1.1 kcal/mol/M and 0.83 kcal/mol/M.
